In patent US20230279105A1 (SINGLE CELL TECHNOLOGY, published 2023):

B1: SCT-Fa172 (antibody, V domains shown)
VH: QVQLQQSGAELARPGASVKLSCKASGYTFTSYGISWVKQRTGQGLEWIGEIYPRSGNTYYNEKFKGKATLTADKSSSTAYMELRSLTSEDSAVYFCARSTYGSSSYAMDYWGQGTSVTVSS
VL: DVLMTQTPLSLPVSLGDQASISCRSSQSIVHSNGNTYLEWYLQKPGQSPKLLIYKVSNRFSGVPDRFSGSGSGTDFTLKISRVEAEDLGVYYCFQGSHVPYTFGGGTKLEIK
notes: murine IgG
B2: SCT-Fa176 (antibody, V domains shown)
VH: QVQLQQSGAELVRPGASVTLSCKASGYTFTDFEMHWVKQTPVHGLEWIGAIDPETGGTAYNQKFKGKAILTADRSSSTAYMELRSLTSEDSAVYYCTRGIYYGNYGSAMDYWGQGTSVTVSS
VL: DVLMTQTPLSLPVSLGDQASISCRSSQSIVHSNGNTYLEWYLQKPGQSPKLLIYKVSNRFSGVPDRFSGSGSGTDFTLKISRVEAEDLGVYYCFQGSHAPLTFGAGTKLELK
notes: murine IgG
B3: SCT-Fa177 (antibody, V domains shown)
VH: QVQLQQSGAELVRPGASVTLSCKASGYTFTDYEMYWVKQTPVHGLEWIGVIDPETGGTAHDQKFKGKAILTADKSSSTAYMELRSLTSEDSAVYYCTRWAFWGQGTLVTVSA
VL: DVVMTQTPLSLPVSLGDQASISCRSSQSLVHSNGNTYLHWYLQKPGQSPKLLIYKVSNRFSGVPDRFSGSGSGTDFTLRISRVEADDLGVYFCSQSTHVPYTFGGGTKLEIK
notes: murine IgG
B4: SCT-Fa007 (antibody, V domains shown)
VH: EVKLVESEGGLVHPGSSMKLSCTASGFTFSDYYMAWVRQVPEKGLEWIANINFDGSGTYYLDSLKSRFIISRDNGKNILYLQMSGLKSEDTATYYCARLYDGYYAYWGQGTTLTVSS
VL: DVVMTQTPLSLPVSLGDQASISCRSSQSLVHSNGNTYLYWYLQKPGQSPKLLIYKVSNRFSGVPDRFSGSGSGTDFTLKISRVEAEDLGVYFCSQSTHVPLTFGAGTKLELK
notes: murine IgG
B5: SCT-Fa179 (antibody, V domains shown)
VH: QVQLQQSGAELVRPGTSVKVSCKASGYAFSNYLIEWVKQRPGQGLEWIGVINPGNGGTTYNEKFKDKATLTADRSSTTAYMQLSSLTSEDSAVFFCARTAYGSPLDYWGQGTTLTVSS
VL: DIKMTQSPSSMYASRGERVTITCKASQDINRYLSWLQQKPGKSPKTLIYRANRLVDGVPSRFSGSGSGQDYSLTISSLEYEDMGIYYCLQYDEFPYTFGGGTKLEIK
notes: murine IgG
B6: SCT-Fa180 (antibody, V domains shown)
VH: QVQLQQSGAELVRPGTSVKVSCKASGYAFTNYLIEWAKQRPGQGLEWIGVINPGSGATTYNEKFKGRATLTADMSSTTAYMQLSSLTSEDSAVFFCARTAYGSPLDCWGQGTTLTVSS
VL: DIKMTQSPSSMYASLGERVTITCKASQDINRYLSWLQQKAGKSPKTLIYRENRLVEGVPSRFSGSGSGQDYSLTISSLEYEDMGIYYCLQYDEFPYTFGGGTKLEIK
notes: murine IgG
B7: SCT-Fa170 (antibody, V domains shown)
VH: QVQLQQSGAELARPGASVKLSCKASGYTFRSYGLSWVKQRTGQGLEWIGEIYPRSGNTYYNEKFKDRVTLTADKSSSAAYMELRSLTSEDSAVYFCARSTAVVAGGFDYWGQGTALTVSS
VL: DIVMTQSPSSLTVTAGEKVTMSCKSSQSLFNSRTQKNSLTWYQQKPGQPPKLLIFWASTRESGVPDRFTGSASGTDFTLTLSGVQAEDLAIYYCQNDYTYPWTFGGGTKLEIK
notes: murine IgG
B8: SCT-Fa171 (antibody, V domains shown)
VH: QVQLQQSGAELARPGASVKLSCKASGYTFTNYGISWVKQRTGQGLEWIGEIYPRSGNSYYNEKFKGKATLTADKSSSTAYMELRSLTSEDSAVYFCARSTAIVAGGFDYWGQGTTLTVSS
VL: DIVMTQSPSSLTVTAGEKVTMSCKSSQSLLNSRIQKNSLTWYQQKPGQPPKLLIYWASTRESGVPDRFTASGSGTDFTLTISSVQAEDLAVYYCQNDYTYPWTFGGGTKLEIK
notes: murine IgG
B9: SCT-Fa169 (antibody, V domains shown)
VH: QVQLQQPGTELVMPGASVNLSCKASGYTFTSYWMHWVKQRPGQGLEWIGEIDPSDSYANYNQNFKGKATLTVDKSSITAYMQLSSLTSEDSAVYYCARNYGSNYVGYFDYWGQGTTLTVSS
VL: DIQMTQTTSSLSASLGDRVTISCRASQDISNYLNWYQQKPDGTVKLLIYYTSRLHSGVPSRFSGSGSGTDYSLTISNLDQEDIATYFCQQEKTLPWTFGGGTKLEIK
notes: murine IgG
B10: SCT-Fa159 (antibody, V domains shown)
VH: QVQLQQPGTELVKPGASVKVSCKASGYTFISYWMHWVKQRPGQGLEWIGNIDPNYGGPNYNEKFKTKATLTVDKSSSTAYMQLSSLTSEDSAVYYCARWGWDGFAYWGQGTLVTVSA
VL: DAVMTQTPLSLPVSLGDQASISCRSSQSLENSNGNTYLNWYLQKPGQSPQLLIYRVSNRFSGVLDRFSGSGSGTDFTLKISRVEAEDLGVYFCLQITHVPYTFGGGTKLEIK
notes: murine IgG
B11: SCT-Fa161 (antibody, V domains shown)
VH: QVQLQQPGTELVKPGASVKVSCKASGYTFISYWMHWVKQRPGQGLEWIGNIDPNYGGPNYNEKFKTKATLTVDKSSSTAYMQLSSLTSEDSAVYYCARWGWDGFAYWGQGTLVTVSA
VL: QIVLTQSPALMSASPGEKVTMTCSASSSVSYMYWYQQKPRSSPKPWIYLTSNLASGVPARFSGSGSGTSYSLTISSMEAEDAATYYCQQWSSNPFTFGSGTKLEIK
notes: murine IgG
B12: SCT-Fa163 (antibody, V domains shown)
VH: QVQLQQPGTELVKPGASVKVSCKASGYTFISYWMHWVKQRPGQGLEWIGNIDPNYGGSNYNEKFKSKATLTVDKSSSTAYMQLSSLTSEDSAVYYCARWGWDGFAYWGQGTLVTVSA
VL: DIQMTQSPSSLSASLGERVSLTCRASQDIGSSLNWLQQEPDGTIKRLIYATSSLDSGVPKRFSGSRSGSDYSLTISSLESEDFVDYYCLQYASSPFTFGSGTKLEIK
notes: murine IgG
B13: SCT-Fa160 (antibody, V domains shown)
VH: QVQLQQPGTELVKPGASVKVSCKASGYTFISYWMHWVKQRPGQGLEWIGNIDPNYGGPNYNEKFKTKATLTVDKSSSTAYMQLSSLTSEDSAVYYCARWGWDGFAYWGQGTLVTVSA
VL: DAVMTQTPLSLPVSLGDQASISCRSSQSLENSNGNTYLNWYLQKPGQSPQLLIYRVSNRFSGVLDRFSGSGSGTDFTLKISRVEAEDLGVYFCLQLTHVPYTFGGGTKLEIK
notes: murine IgG
B14: SCT-Fa168 (antibody, V domains shown)
VH: QVQLQQPGTELVKPGASVKVSCKTSGYTFISYWMHWVKQRPGQGLEWIGNIDPNSGTTNYNEKFKTKATLTVDKSSSTAYMQLSSLTSEDSAVYYCARWGWDGFAYWGQGTLVTVSA
VL: DAVMTQTPLSLPVSLGDQASISCRSSQSLENSNGNTYLNWYLQKPGQSPQLLIYRVSTRFSGVLDRFSGSGSGTDFTLKISRVEAEDLGVYFCLQVTHVPYTFGGGTKLEIK
notes: murine IgG
B15: SCT-Fa164 (antibody, V domains shown)
VH: QVQLQQPGTELVKPGASVKVSCKASGYTFISYWMHWVKQRPGQGLEWIGNINPNNGGTNYNEKFKSKATLTVDKSSSTAYMQLSSLTSEDSAVYYCARWGWDGFAYWGQGTLVTVSA
VL: DAVMTQTPLSLPVSLGDQASISCRSSQSLENSNGNTYLNWYLQKPGQSPQLLIYRVSTRFSGVLDRFSGSGSGTDFTLKISRVEAEDLGVYFCLQVTHVPYTFGGGTKLEIK
notes: murine IgG
B16: SCT-Fa166 (antibody, V domains shown)
VH: QVQLQQPGTELVKPGASVKVSCKASGYTFVSYWMHWVKQRPGQGLEWIGNIDPNNGGSNYNERFRTKATLTVDKSSSTAYMQLSSLASEDSAVYYCARWGWDGFAYWGQGTLVTVSA
VL: DAVMTQTPLSLPVSLGDQASISCRSSQSLENSNGNTYLNWYLQKPGQSPQLLIYRVSTRFSGVLDRFSGSGSGTDFTLKISRVEAEDLGVYFCLQLTHVPYTFGGGTKLEIK
notes: murine IgG
B17: SCT-Fa165 (antibody, V domains shown)
VH: QVQLQQPGTELVKPGASVKVSCKASGYTFVSYWIHWVKQRPGQGLEWIGNIDPNNGGSNYNERFRTKATLTVDKSSSTAYMQLSSLASEDSAVYYCARWGWDGFAYWGQGTLVTVSA
VL: DAVMTQTPLSLPVSLGDQASISCRSSQSLENSNGNTYLNWYLQKPGQSPQLLIYRVSTRFSGVLDRFSGSGSGTDFTLKISRVEAEDLGVYFCLQLTHVPYTFGGGTKLEIK
notes: murine IgG
B18: SCT-Fa174 (antibody, V domains shown)
VH: QVQLQQSGAELVKPGASVKLSCKASGYSITGYYIHWVKQRPGQGLEWIGWIYPGSGSIKYNEKFKGKATLTADTSSSTADMQLSSLTSEDSAVYYCAREAWGNWYFDVWGTGTTVTVSS
VL: DILLTQSPAILSVSPGERVSFSCRASQSIGTSIHWYQQRTNGSPRLLIKYASESISGIPSRFSGSGSGTDFTLSINSVESEDIADYYCQQSNSWPYTFGGGTKLEIK
notes: murine IgG
B19: SCT-Fa173 (antibody, V domains shown)
VH: QVQLQQSGAELMRPGASVTLSCKASGYTFPDYEMYWVKQTPVHGLEWIGVIDPETGGTAYNQKFEVKAILTADKSSNTAYMELRSLTSEDSAVYYCTRWAYWGQGTLVTVSA
VL: QIVLTQSPAIMSASLGERVTMTCTASSSVSSSYLHWYQQKPGSSPKLWVYSTSNLASGVPGRFSGSGSGTSYSLTISSMEAEDAATYYCHHYHRSPPTFGGGTKLEIK
notes: murine IgG
B20: SCT-Fa175 (antibody, V domains shown)
VH: QVQLQQSGAELVRPGASVTLSCKASGYTFSDYEMHWVKQTPVHGLEWIGVIDPETGDTAYNQKFKDKAVLTADKSSNTAYMELRSLTSEDSAVFFCTSNGYPEHWGQGTTLTVSS
VL: QIVLTQSPAIMSASLGERVTMTCTASSGVSSTYLHWYQQRPGSSPKLWIYSTSTLASGVPARFSGSGSGTSYSLTISSMEAEDAATYYCHQYHRSPLTFGAGTKLELK
notes: murine IgG
B21: SCT-Fa178 (antibody, V domains shown)
VH: QVQLQQSGAELVRPGASVTLSCKASGYTFTDYEMYWVKQTPVHGLEWIGVIDPETGGTAHDQKFKGKAILTADKSSSTAYMELRSLTSEDSAVYYCTRWAFWGQGTLVTVSA
VL: QIVLTQSPAIMSASLGERVTMTCTASSSVSSSYLHWYQQKPGSSPKLWVYSTSNLASGVPGRFSGSGSGTSYSLTISSMEAEDAATYYCHHYNRSPPTFGGGTKLEIK
notes: murine IgG

target: T1, Human TIM-3 Human Fc tagged protein (human, fluorescently labeled with HiLyte Fluor 555 (sites not given)); experiment: capture slide probed with labeled TIM-3-Fc;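 further: IgG from single CD138-enriched plasma cells, isolated from lymphocytes, immobilized on a derivatized glass slide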
T1 construct: Bought construct; also called TIM-3 protein tagged with human Fc; ACROBiosystems catalog no: TM3-H5258

Binding result, binds:
B1, B2, B3, B4, B5, B6, B7, B8, B9, B10, B11, B12, B13, B14, B15, B16, B17, B18, B19, B20, B21
